In patent US9234036B2, “Modulation of activity of proneurotrophins” (H. Lundbeck A/S, priority 2006, dated 2016):
“Also recorded” adds a separate entry of the source. Where no end group is shown, it is not given here.

T1: GST-pro-dom-NGF (Homo sapiens, UniProt P01138, A35V)
T1 construct: previously described GST-NGF-pro-domain fusion protein (Nykjaer et al., Nature 2004)
T1 sequence (P01138 19-121 A35V): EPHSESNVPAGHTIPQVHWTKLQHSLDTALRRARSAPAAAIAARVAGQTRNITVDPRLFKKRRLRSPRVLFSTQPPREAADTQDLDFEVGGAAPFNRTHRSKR

T2: pro-dom-BDNF (Homo sapiens, UniProt P23560)
T2 construct: pro-dom-BDNF (residues Ala^1-Arg^110); made in house; host or cells: E. coli BL21/DE3
T2 sequence (P23560 19-128 limits assumed): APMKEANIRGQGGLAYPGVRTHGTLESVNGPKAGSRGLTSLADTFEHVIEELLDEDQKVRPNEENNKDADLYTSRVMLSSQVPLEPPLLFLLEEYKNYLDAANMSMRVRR

T3: pro-dom-NGF (Homo sapiens, UniProt P01138, A35V)
T3 construct: pro-dom-NGF (residues Glu^1-Arg^102); made in house; host or cells: E. coli BL21/DE3
T3 sequence (P01138 19-121 A35V): T1 sequence (P01138 19-121 A35V)

T4: proNGF binding to immobilized Sortilin (Homo sapiens, UniProt Q99523)
T4 construct: 51 fmol/mm^2 purified Sortilin extracellular domain; made in house; host or cells: Sortilin: stably transfected CHO cells; proNGF: E. coli
T4 sequence (Q99523 78-755 limits assumed): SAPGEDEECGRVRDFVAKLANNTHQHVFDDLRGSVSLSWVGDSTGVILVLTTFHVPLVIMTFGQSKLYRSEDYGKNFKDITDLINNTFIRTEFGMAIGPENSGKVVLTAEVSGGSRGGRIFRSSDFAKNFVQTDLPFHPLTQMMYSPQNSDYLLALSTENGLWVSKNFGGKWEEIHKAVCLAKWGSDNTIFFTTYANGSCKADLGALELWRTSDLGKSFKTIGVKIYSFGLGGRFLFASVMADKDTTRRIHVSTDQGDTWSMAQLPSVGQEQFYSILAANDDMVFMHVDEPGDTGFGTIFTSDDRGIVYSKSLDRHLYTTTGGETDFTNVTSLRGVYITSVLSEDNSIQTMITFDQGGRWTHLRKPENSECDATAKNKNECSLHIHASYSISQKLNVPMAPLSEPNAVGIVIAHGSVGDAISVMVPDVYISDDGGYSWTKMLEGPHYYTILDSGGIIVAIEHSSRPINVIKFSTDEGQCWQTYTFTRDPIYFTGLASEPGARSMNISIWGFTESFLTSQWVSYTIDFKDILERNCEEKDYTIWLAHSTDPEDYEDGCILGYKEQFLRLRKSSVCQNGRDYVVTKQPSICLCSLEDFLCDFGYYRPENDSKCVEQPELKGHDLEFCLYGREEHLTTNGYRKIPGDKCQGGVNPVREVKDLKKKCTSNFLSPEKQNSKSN

B1: RAP: receptor-associated protein, SEQ ID NO 12 (protein, listed as Homo Sapiens)
chain: MAPRRVRSFLRGLPALLLLLLFLGPWPAASHGGKYSREKNQPKPSPKRESGEEFRMEKLNQLWEKAQRLHLPPVRLAELHADLKIQERDELAWKKLKLDGLDEDGEKEARLIRNLNVILAKYGLDGKKDARQVTSNSLSGTQEDGLDDPRLEKLWHKAKTSGKFSGEELDKLWREFLHHKEKVHEYNVLLETLSRTEEIHENVISPSDLSDIKGSVLHSRHTELKEKLRSINQGLDRLRRVSHQGYSTEAEFEEPRVIDLWDLAQSANLTDKELEAFREELKHFEAKIEKHNHYQKQLEIAHEKLRHAESVGDGERVSRSREKHALLEGRTKELGYTVKKHLQDLSGRISRARHNEL

Key:
GST-pro-dom-NGF = target: T1, GST-pro-dom-NGF; assay: SPR binding of GST-pro-dom-NGF to immobilized sortilin site-directed mutants
Method: Site-directed mutagenesis was performed for all important residues within the peptide sequence as identified by the substitution analysis in the SPOT method, using the pCepPU expression vector for sortilin as template. The thereby generated mutant constructs were used together with HEK293 cells to produce single residue mutants of the his-tagged sortilin luminal domain, to obtain the proteins R163A, F165A, R166A, F170A, K172A, and F174A numbered according to pro-Sortilin as specified in the sequence overview. As a control protein, the mutant R160A located N-terminally to the recognition sequence, was produced in order to have a protein with unaltered affinity for the NGF-prodomain.
After purification by standard Ni^2+-NTA chromatography, each sortilin mutant was immobilized to a similar surface density on Biacore CM5 chips. Binding was tested using concentration series of the previously described GST-NGF-pro-domain fusion protein (Nykjaer et al., Nature 2004), which is able to render a higher response using the SPR system at low concentration. Thus concentration series of 10, 20, 30, 40, and 50 nM GST-prodomain of NGF was applied to each chip surface, and data was fitted to a 1:1 binding model using the standard BIAevaluation software.
This model is further supported by the previous data in the substitution analysis, where a stronger effect upon mutation was observed when using peptides containing only one of the binding motives, as compared to mutants spanning both motives. Accordingly, it was decided to “remove” an entire motif before substitution within the second motif and to be able to observe how that would influence binding of the ligand. A sortilin variant was produced containing quadruple substitutions (R163A, F165A, R166A, and […] F170A) in a similar procedure using HEK293 cells as applied for single residue mutants.
To determine ligand binding capacity, quatro protein was coupled in parallel to the wild-type sortilin on a new Biacore chip, and binding of GST-pro-NGF was measured in a manner similar to the analysis of single residue mutants (FIG. 21).

pro-dom-BDNF = target: T2, pro-dom-BDNF; assay: SPOT analysis of pro-dom-BDNF binding to cellulose-bound sortilin peptides; conditions: HRP-S-protein detection where stated
Description: (§1) Peptide libraries were generated for all members of the Vps10p-domain receptor gene family or specific peptide variations in terms of substitution or length of identified Sortilin binding peptides. A total of 2181 peptides was used for representation of the Sortilin gene family, corresponding to 273 peptides for Sortilin (accession code: CAA66904), 734 peptides for SorLA (accession code: NP_003096), 389 peptides for SorCS1 (accession code: NP_001013049), 382 peptides for sorCS2 (accession code: Q96PQ0), and 403 peptides for SorCS3 (accession code: CAI64579), with a 13 amino acid overlap between 16-mers.
(§2) A cellulose support is prepared as a N-modified cellulose-amino-hydroxylpropyl ether membrane, and all rounds of synthesis starts with SPOT definition by 9-fluorenyl-methoxycarbonyl-β-alanine-pentafluoophenyl ester that creates an alanine linker between peptide and membrane. Then followed an automated linear synthesis of stepwise addition of the different amino acids protected at their amino terminal by 9-fluorenyl-methoxycarbonyl and appropriate side chain protection for the growing peptide chain. The pattern of deprotection, activation, and coupling continued until 16-mer peptides were produced, resulting in an equally distributed array of covalently anchored peptides to the cellulose support at their C-terminal and an N-terminal free end.
(§3) The membrane-bound libraries were incubated with a combined S-peptide and poly-histidine-tagged pro-domains (10 ug/mL) in blocking buffer over night at 4 C, followed by a second incubation with 1 ug/mL of HRP-conjugated S-protein from Novagen (cat. no. 69047-3) also in blocking buffer but for 3 h at room temperature. Subsequently, the membrane was washed three times for 10 min with TBS before quantitative characterization of bound ligand was carried out using the UptiLight chemoluminescence substrate from Uptima (cat. no. UP99619A) and the Lumilmager instrument from Roche Diagnostics, providing the SPOT signal intensities in Boehringer Light Units (BLUs). […]

pro-dom-NGF = target: T3, pro-dom-NGF; assay: SPOT analysis of pro-dom-NGF binding to cellulose-bound sortilin peptides; conditions: HRP-S-protein detection where stated
Description: as §1, §2, §3

[1] = target: T4, proNGF binding to immobilized Sortilin; assay: Inhibition of proNGF binding to immobilized Sortilin (Biacore); conditions: then coinjection, 51 fmol/mm^2 Sortilin (FIG. 6)
[2] = GST-pro-dom-NGF at 10-50 nM, 1:1 binding model

Molecule | Kd (GST-pro-dom-NGF; [2]) [nM] | ka (GST-pro-dom-NGF; [2]) | kd (GST-pro-dom-NGF; [2]) | other results
F165A: single residue mutant of his-tagged sortilin luminal domain; SEQ ID NO 52 (RGGRIARSSDFAKNF; not fully specified) | 3.86 | 1.10 × 10^5 | 4.22 × 10^−4 | 
F170A: single residue mutant of his-tagged sortilin luminal domain; SEQ ID NO 54 (RGGRIFRSSDAAKNF; not fully specified) | 5.59 | 1.30 × 10^5 | 5.91 × 10^−4 | 
F174A: single residue mutant of his-tagged sortilin luminal domain; SEQ ID NO 56 (RGGRIFRSSDFAKNA; not fully specified) | 4.27 | 2.35 × 10^5 | 1.03 × 10^−3 | 
FAKNFVQTD (listed as Homo Sapiens) |  |  |  | pro-dom-BDNF binding in SPOT analysis (pro-dom-BDNF): efficient binding; pro-dom-NGF binding in SPOT analysis (pro-dom-NGF): efficient binding
K172A: single residue mutant of his-tagged sortilin luminal domain; SEQ ID NO 55 (RGGRIFRSSDFAANF; not fully specified) | 3.91 | 1.01 × 10^5 | 3.46 × 10^−4 | 
R160A: single residue mutant of his-tagged sortilin luminal domain, control; SEQ ID NO 50 (AGGRIFRSSDFAKNF; not fully specified) | 1.89 | 1.47 × 10^5 | 2.27 × 10^−4 | 
R163A: single residue mutant of his-tagged sortilin luminal domain; SEQ ID NO 51 (RGGAIFRSSDFAKNF; not fully specified) | 2.7 | 1.85 × 10^5 | 4.21 × 10^−4 | 
R166A: single residue mutant of his-tagged sortilin luminal domain; SEQ ID NO 53 (RGGRIFASSDFAKNF; not fully specified) | 4.38 | 6.48 × 10^4 | 2.85 × 10^−4 | 
RIFR: 4-mer sortilin peptide, SEQ ID NO:25 residues 7-10 (listed as Homo Sapiens) |  |  |  | pro-dom-BDNF binding in SPOT analysis (pro-dom-BDNF): binds very strongly; pro-dom-NGF binding in SPOT analysis (pro-dom-NGF): binds very strongly
RIFRSSDF (listed as Homo Sapiens) |  |  |  | pro-dom-BDNF binding in SPOT analysis (pro-dom-BDNF): efficient binding; pro-dom-NGF binding in SPOT analysis (pro-dom-NGF): efficient binding
Sortilin propeptide: propeptide of the Sortilin receptor (QDRLDAPPPPAAPLPRWSGPIGVSWGLRAAAAGGAFPRGGRWRR) |  |  |  | inhibition of binding of 200 nM proNGF to immobilized Sortilin ([1]; 5 μM inhibitor prebound): ~65%
quatro: sortilin variant with quadruple substitutions R163A, F165A, R166A, F170A; SEQ ID NO 57 (RGGAIAASSDAAKNF; not fully specified) |  |  |  | binding of GST-pro-dom-NGF compared with sortilin wt (GST-pro-dom-NGF; 50 nM GST-pro-dom-NGF, FIG. 22): severely affected; also recorded: strongly reduced affinity; KD (GST-pro-dom-NGF; [2]): no binding
B1 |  |  |  | inhibition of binding of 200 nM proNGF to immobilized Sortilin ([1]; 10 μM inhibitor prebound): ~65%
